According to the DeepSol protein solubility set:

assay: soluble on expression in E. coli; label from the status in PepcDB or PDB records

Soluble on expression in E. coli, soluble:
MNGKFDKYEYLQDLMRRRGFAWGSFEIYGGSRGFYDYGPLGATIKRKIERKIREAFIREGFFEIETPDITPEQVFIASGHVEKFVDPVVECKKCGMRFRADHLIEEFLGIDVEGKSAEEMSRIIREHGLKCPECGGELSDVFYFNLMFETYIGPYKDKKAYLRPETAQGIFVNFKRLNAFARNKLPFGVFQIGKAYRNEISPRQGMIRLREFTQAEAEIFFNPNETEHPHFNEVKHEKLKLYPIENQLKELGEVEVTAEEAVKRGYVMNSFFAYYMVMIKKILLDIGIPEDKIRFRQQLPEERAHYSADTWDAEVYSERFGWVECVGLAYRTDYDLSRHMKMSGADLTVMIHYDKPKVVKRIQVSLNMKKVGPKLKADAKKINEIIKSMDQKELEKLVKDLNEKGKVTIEGYELSKEDFIVKEVEEKITGEKIVPHVLEPSFGIDRPFYLLLENSLTVDEDGRIYLKIKKDMAPIEVAVLPLVAKEPLTTIAYEIYRTLQKEGFIVVYDEKDSIGKRYMRYDEIGTPYCVTVDNQTPEDGTVTIRDRDTREQIRVKIEELPRKLKELIFG
TVSVLLPFVATEFYRRLVEGIEGVLLEQRYDLALFPILSLARLKRYLENTTLAYLTDGLILASYDLTERFEEGRLPTERPVVLVDAQNPRYDSVYLDNRLGGRLAGAYLARFPGPIFAIAVEEEPDRAFRRTVFAERMAGFQEALKEAGRPFSPDRLYITRHSQEGGRLALRHFLEKASPPLNVFAGADQVALGVLEEAVRLGLTPGRDVRVLGFDGHPFAEEAGLSTIAQPVEAMGARAAQLLLERMRGYQGPPREVRFEPVLVERASTGTPPAA
MSPLTQFKFFLWFFSHFKVALIGYLKPKLIQLTDNEIVVRLPLTRRSRNHLHSMYFGALAVGADIAGGLHGFYHAKQAKCKVSLAFKSFQAQFLRRPESDVYFICTEGDVVKKMIEESKKSGERINKPIHIKAYINYLTHPEEIADFILELSLKVIKLEHHHHHH
MMLITDTGVPERYIDTDEWGGEVMLRLDDGWCAALDRNTMMCTIYEKRPLICREFEAGAEDCLTERKGIATAYL

Soluble on expression in E. coli, not soluble:
MDNIVTQNIKFESEPNYYLRGYHLFDISPLNGLKCEITDEFETDKIHLKIKLDWDQQEIKKITGFIQLSYDGHQLKPIDSNFDKRGGICIMTVPKYINAYRWSFSFDLKLHRYPAKPPQISHDLNPQVRSYDTMFEPSRKHDAVLLIGEKKLHVNKAFLSYHSDYFCDLFAEKFDEKNGIPIENVTYENFGLLMSIIYPEAAFSNHQNAEVLLELGNRFKIPAVMRHVENQIIRDTKFPNERLIFLADKYELQKLLAMEIQKMESFDQAKKFKGSDDYSQLSDATKAKILDRLIELS
MGSDKIHHHHHHMPFDPKIRGPLDVRPLLQLMSAGSWQVELAHERDCHLVIWITRGQGRVLLDGQCRGFGPHTALCIPARTLFSLELGRQCIGQVLRIGEDIPCGLPETPMQIRINDMQEQGRINALFDAALREQQVADDHTAKAITSYADLVGIHLQRLWVRAPENRKPTAARRLCRAYCARLAQDAEGAFNMAGHASELGVTPTHLTRVCKQETGKTAAALLTERQLHAARSLLASTRLPMRDIAQSLGFGSAAYFTRFITQHTGSTPSDLRKKAHGAQLASGRNP
MSWMDKFDPKLQTMVKEVDAQIAPQLAKIDARILENQNKVLTSFQNHHVAESYLTGSTGYGHNDEGRDVLEAIYADVLGGEDALVRPQFVSGTHAIGVALLGLVRPGDDIVYITGKPYDTLQEVLGLAGNGIGAPQEYGIGVDYVDLLPNGAVDDDAVKARLNDKTKVVAIQRSRGYATRDSFTVDQIAAMIKVVRSVLPNVWIFVDNAYGEVSETKEPLEVGADVMAGSLFKNAGGGMAKTGGYIVGKKDLIDRISYRFTVPGLGGAEGATVGALADMYQGFFISPQTTGNAIKGAIFEAALFAKLGLDVSPAWDAPRTDLIQTVNFGNADDMVKFAKAVQANSPVDSFVTPIPEKMAGYEDQVIMAGGTFVAGSTIEFSGDGPLRPPYTLYLQGGLTYAHIKLATMGAAQSTFFDNLEHHHHHH
MISLNNRLTTVSRFLKQGTIADIGSDHAYLPIYAIQNHLCECGIAGEVIQGPFQAAVKNVAANHLVERIDVRLGDGLSVIHPEDVIDNITICGMGGPLIAKILKDGQDKLSQHPRLILQSNIQTENLRQTLQQLNYEIIDEIIMEEKGHIYEIVVA
MKYTFLLLCAIFGCTLAMRQQSVAVSGKLMCGSKPASGVKVKLWDEDDGPDPDDVLDEGFTNNDGTFRLEGSERELTNIDPVFKVYHDCDDGIIPGQRKIKFRIPNKYISAGGRAQKTFEIGVLNLETIFPKEERDLL
MGSDKIHHHHHHMRAHCRHSLWRKENMMESKIYPHEVSLETIDSMPDEYRDTLIHQLLANGEGELSAGDTYIDSFYPLAPDADERYICAQFAAEEVDHFRRFSRLLAELEVDTSHMLSQKKAERRYFAAESMTTDFRSWEERAAFSFLCELEGHYQIKEMVSSSYLPLRAEAEAVLKEEARHFSHGALLMRRAAKDGDARARAQDALDRLYPMAMDMFGRSDSHRSDAAVSWGLRQYTNGQLRDRYRDDVRGHIQRLGYEVPDETARRKYF
MNKELTFNDLPMVVAQLRDEVVGMKQMIVSLQSQNKPHKANTHIPMSVEEASAYLKMPMATLYMKLGNGSIPATKPGKRYCLYQDELDKWLETNRKNPVPLTAEEENAAILAGNKRKPKPLNW
QTITIKGQVLDEKKQPVSYASVVISTDSLSKKDISYAVTDEHGQFRIGQLSAIPDKRWIHVRSIGYLGFHKQISLRAVKSPLDITLTEDTKELEEVVVVARARDAYAKGDTIVFNSKNYTLGNERNLGDVVKKMPGMEVDQTGNISYQGKKIGKVLVDGQDILSSSSGVAMNTLPPDFANSIELLSNYTDGDIAHAFKAEEQLALNLKSNKKVALSGSFEGGGGLKDKFISKASLITVLPKISASTIINANNTGEAVFSIQDYMSNIIDFESIRSGASTQTSLSLSPEEQQLLLPPTNEHARTAGLANINISWTPHSSYKLRASTLFNKGKSEGAHTKTDTYTLPENYFTNISTGTADKETQLVSQYLSQKWIPSRFFSVSAKTKIDIRNHNADNIYANTFNDNHIHALEKPKNHFSGIKQDIEMKWLLSKGLLFGGGSFVFNKGKINSDIYTDVLLLPLPHINGNSIYPYFHEHIKKDMEKGFNAYVGGMYPVLNNIYLRGEFSMSMNWNELKMAYPTSINEETADLRVFRPYISLMKNKGVFRFNIGSYFSSYRQKTSPELLREKSLFYIEPHASIELVMSNQHRLMLSVSEAVSPSTIDYFSQQILAKGYNNLQLPSKLSNPFAKRFKGNLSYAYFSLFNRLSMYGNLSYIKDRDTHITVTTSKGLLISNFYQDGGWSNTLRTNAYLSKGIGTLPLDIKLSGKYTLSKHNLMRVDKEDELINKRVDAKLDLISRLYQSPVNFEIGVRFSRLDQKFTYSNIHSWNQE
MGSDKIHHHHHHLAKIKTKFVCQSCGTESPKWMGRCSGCGEWNTMVEEVVEEKKARRGSAFVHTTTKQLKPERLSNILSQEESRVFTGSGEFDRVLGGGIVPGSMVLVGGDPGIGKSTILLQTSARLAARGEKVLYISGEESLKQTKLRAERLGLPTQDLFVLSETDMNMIERVVDEENPAFLIIDSIQTVYIDEIQSAPGSVTQVRECTAMLMKIAKSRGIAIFIVGHVTKQGSIAGPRLLEHMVDAVLYFEGERHHTFRILRAVKNRFGSTNEIGIFEMRESGLEEVLNPSEIFLEERTSGVSGSTIVASMEGTRTVLVELQALISPTSFGNPRRMATGIDQNKVALLMAVLEKRSGLLLQTQDAYLKAAGGVKLDEPAIDLAICVAVASSFRDKPTRPTDVVIGEVGLTGEVRRVSRIEQRVAEAAKLGFTRAIIPKNNLGGWTYPPGITVIGVESVDEALRETIPF
